Measured values taken from PMC10227085, “OsMADS17 simultaneously increases grain number and grain weight in rice”.

B1: EMSA-probe-OsMADS17 (dsDNA)
DNA 1: TCTCTGCTCCTTTATATGGGGTTACA
DNA 2: TGTAACCCCATATAAAGGAGCAGAGA
B2: EMSA-probe-OsAP2-39 (dsDNA)
DNA 1: AAACCTTACCAAATTTTGGTAAAGTTGCCAAAAAAATGGCTATATTTA
DNA 2: TAAATATAGCCATTTTTTTGGCAACTTTACCAAAATTTGGTAAGGTTT

Assays:
MBP-OsMADS1 = MBP-OsMADS1 (Oryza sativa, UniProt Q10PZ9 1-257); experiment: EMSA; cold probe competition at 20x and 200x; 20 uL with 2 uL biotin probe, 5 ug protein, 2 uL 10x binding buffer (composition not given), 1 uL 50% glycerol; 30 min at room temperature; 6% native PAGE, 0.5x TBE; settings: protein: recombinant; tags: N-terminal MBP; chain copies: 2; blunt
Chain of MBP-OsMADS1 (Q10PZ9 whole entry): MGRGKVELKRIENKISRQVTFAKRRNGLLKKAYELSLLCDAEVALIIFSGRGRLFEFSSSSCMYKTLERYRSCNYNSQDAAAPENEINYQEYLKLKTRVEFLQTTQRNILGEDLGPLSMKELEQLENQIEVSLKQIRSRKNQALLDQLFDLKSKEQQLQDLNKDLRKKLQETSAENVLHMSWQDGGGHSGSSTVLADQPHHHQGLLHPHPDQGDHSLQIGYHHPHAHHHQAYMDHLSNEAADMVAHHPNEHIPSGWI

MBP-OsMADS17 = MBP-OsMADS17 (Oryza sativa, UniProt Q7XUN2 1-249); experiment: as above; settings: protein: recombinant; tags: N-terminal MBP; chain copies: 2; blunt
Chain of MBP-OsMADS17 (Q7XUN2 whole entry): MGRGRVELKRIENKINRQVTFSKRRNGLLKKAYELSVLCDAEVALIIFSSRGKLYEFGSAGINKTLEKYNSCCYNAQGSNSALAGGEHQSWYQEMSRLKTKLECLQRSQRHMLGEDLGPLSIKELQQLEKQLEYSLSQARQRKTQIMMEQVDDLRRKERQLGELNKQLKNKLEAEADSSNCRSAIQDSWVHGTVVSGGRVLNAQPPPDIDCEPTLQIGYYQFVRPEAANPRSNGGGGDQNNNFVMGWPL

Binder	binding result (MBP-OsMADS1)	binding result (MBP-OsMADS17)
B1	binds	–
B2	–	binds
